Laboratory results from US20190092852A1.
Changes are numbered by the printed parent chain.

T1: human IL-33 (R&D Systems, #3625-IL-010/CF) (human) (UniProt O95760)
T1 sequence (looked up): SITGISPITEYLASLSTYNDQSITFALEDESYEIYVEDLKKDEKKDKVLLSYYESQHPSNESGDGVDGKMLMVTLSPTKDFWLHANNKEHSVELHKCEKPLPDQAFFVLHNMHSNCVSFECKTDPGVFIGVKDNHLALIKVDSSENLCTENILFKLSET

T2: biotinylated human IL-33 (human) (UniProt O95760)
T2 sequence (biotin-labeled with EZ-LINK NHS-PEG4-Biotin, looked up): T1 sequence (looked up)

B1: H4H9663P (antibody, from another filing, IgG4, V domains shown)
VH: QVQLVQSGAEVKKPGASVKVSCKASGYTFTGHYMYWMRQAPGQGLEWMGWINPNSGGTNYAQKFQDRVTMTRDTSISTAYMELSRLRSDDTAVYYCARGRYGSSWYGGFEYWGQGTLVTVSS
VL: DIQMTQSPSSVSASVGDRVTITCRASQGITSWLAWYQQKPGKAPNLLIYAAASLQSGVPSRFSGSGSGTDFTLTISSLQPEDFTTYYCQQAYSLPLTFGGGTKVEIK
B2: H4H9664P (antibody, from another filing, IgG4, V domains shown)
VH: QVQLVESGGGVVQPGRSLRLSCAASGFTFSSYGLHWVRQSPGKGLEWVALISYDGSNKYYADSVKGRFTISRDNSKNTLYLQMNSLRPEDTAGYFCAKSLYTTSWYGGFDYWGQGTLVTVSS
VL: B1 VL with T30R, A52S, T84A, Y92N, L94F, L96P, G100P, E105D
B3: H4H9666P (antibody, from another filing, IgG4, V domains shown)
VH: QVQLVQSGAEVKKPGASVKVSCKASGYTFTSYGISWVRQAPGQGLEWMGWIRAYNGYTNYAQKFQGRVTMTTDTSTNTAYMELRTLNSDDTAVYYCARDRYSGSFHGNFDYWGQGTLVTVSS
VL: B1 VL with T30F, N45K, L46V, A52S, S53N, Q55E, T84A, Y92N
B4: H4H9671P (antibody, from another filing, IgG4, V domains shown)
VH: EVQLVESGGGLVQPGGSLRLSCAASGFTLRSYFMTWVRQVPGKGLEGVSAISGISGGTYYTDSVKGRFTISRDNSKNTLFLQMNSLRAEDTAVYFCARTVYSSSYYGGFQHWGQGTLVTVSS
VL: B1 VL with A13V, T30S, N45K, A50V, A52S, T84A, A91T, Y92N, L94F
B5: H4H9672P (antibody, from another filing, IgG4, V domains shown)
VH: B4 VH with F33V, T35Y, V40G, A50G, I54S, T99S, S103T, S104T, Y105W
VL: DIQMTQSPSSVSVSVGDRVTITCRASQVISSWLAWYQLKPGKAPKLLIYAASSLQSGVPSRFSGSGSGTDFTLTISGLQPEDFAVYYCQQTNSFPLTFGGGTKVEIK
B6: H4H9670P (antibody, from another filing, IgG4, V domains shown)
VH: EVQLVESGGGLVQPGGSLRLSCAASGFTLSSYAMSWVRQAPGKGLEWVSAISGSGGSTYYADSVKGRFTISRDNSKNSLYLQLNSLRAEDTAVYYCAKTLYTTSWYGGFQHWGQGTLVTVSS
VL: DIQMTQSPSSVSASIGDRVTITCRASQGISSWLAWYQQKPGKVPKLLIYAASSLQSGFPSRFSGSGSGTDFTLTISSLQPEDFATYYCQQTHSFPWTVGQGTKVEIK
B7: H4H9662P (antibody, from another filing, IgG4, V domains shown)
VH: EVQLVESGGGLVQPGGSLRLSCAASGFTFSSYALTWVRQAPGKGLEWVSFISGSGGRPFYADSVKGRFTISRDNSKNMLYLQMNSLRAEDTAIYYCAKSLYTTSWYGGFDSWGQGTLVTVSS
VL: DIQMTQSPSSVSASVGDRVTITCRASQGVVSWLAWYQQKPGKAPKLLIYAASSLQSGVPSRFSGSGSGTDFTLTISSLQPEDFATYYCQQSNSFPFTLGPGTKVDIK
B8: H4H9676P (antibody, from another filing, IgG4, V domains shown)
VH: EVQLVESGGGLVQPGGSLRLSCSASGFTFSSYAMNWVRQAPGKGLEWVTAISGSGGGTYYADSVKGRFTISRDNSKNSLFLQLNSLRAEDTAVYYCAKQTYTSSWYGGFDIWGQGTMVTVSS
VL: B1 VL with I29F, T30S, K39I, N45K, A52S, S53R, S63R, T84A, Y92N, L94F
B9: H4H9665P (antibody, from another filing, IgG4, V domains shown)
VH: EVQLVESGGGLVQPGGSLRLSCAASGFTFSNYAMTWVRQAPGKGLEWVSTISGSGDNTYYADSVQGRFTISRGHSKNTLYLQMNSLRAEDTAVYYCAKPTYSRSWYGAFDFWGQGTMVTVSS
VL: B7 VL with V29I, V30S, K45Q, S53R, S63W, S91A, S93N, L98F
B10: H4H9675P (antibody, from another filing, IgG4, V domains shown)
VH: EVQLVESGGNLEQPGGSLRLSCTASGFTFSRSAMNWVRRAPGKGLEWVSGISGSGGRTYYADSVKGRFTISRDNSKNTLYLQMNSLSAEDTAAYYCAKDSYTTSWYGGMDVWGHGTTVTVSS
VL: DIQMTQSPSSVSASVGDRVTITCRASQGIFSWLAWYQQKPGKAPKLLIYAASSLQSGVPSRFSGSGSGTDFTLTISSLQPEDFAIYYCQQANSVPITFGQGTRLEIK

Target: T1, human IL-33 (R&D Systems, #3625-IL-010/CF) (human)
Assay: not given

Binder	IC50; SEAP reporter (OD 620), HEK-BLUE IL-33/IL-1beta cells, 10 pM hIL-33
B1	1.5e-09 M
B2	1.5e-10 M
B3	7.1e-10 M
B4	5.7e-10 M
B5	9.8e-10 M
B6	2.6e-09 M
B7	1.5e-10 M
B8	8.2e-10 M
B9	1.1e-09 M

Target: T1, human IL-33 (R&D Systems, #3625-IL-010/CF) (human)
Assay: not given
Remark: another data set of the same source

Binder	IC50; IFN-gamma ELISA, primary human NK cells, 260 pM hIL-33 + IL-12
B1	4.6e-09 M
B3	1e-08 M
B7	1.2e-09 M
B8	1.2e-09 M

Target: T1, human IL-33 (R&D Systems, #3625-IL-010/CF) (human)
Assay: not given
Remark: another data set of the same source

Binder	IC50, IL-33-induced phospho-p38 in primary human basophils, 500 pM hIL-33
B10	3.5e-13 M
B3	7.6e-06 M
B4	2.3e-12 M
B5	5.7e-13 M
B7	2.5e-09 M
B8	9.1e-13 M
B9	2.4e-09 M

Target: T1, human IL-33 (R&D Systems, #3625-IL-010/CF) (human)
Assay: not given
Remark: another data set of the same source

Binder	IC50 (read off the curve)
B4	0.002 nM
B5	0.0006 nM
B8	0.0009 nM

Target: T1, human IL-33 (R&D Systems, #3625-IL-010/CF) (human)
Assay: not given
Remark: another data set of the same source

Binder	Ph-p38 MFI at 0.4 nM Ab (500 pM human IL-33, primary basophils)
B1	123 MFI
B10	48 MFI
B2	63 MFI
B3	90 MFI
B4	122 MFI
B5	113 MFI
B6	118 MFI
B7	86 MFI
B8	132 MFI
B9	106 MFI

Target: T1, human IL-33 (R&D Systems, #3625-IL-010/CF) (human)
Assay: not given
Remark: another data set of the same source

Binder	Ph-p38 MFI at 2 nM Ab (500 pM human IL-33, primary basophils)
B1	80 MFI
B10	30 MFI
B2	40 MFI
B3	71 MFI
B4	83 MFI
B5	61 MFI
B6	90 MFI
B7	44 MFI
B8	61 MFI
B9	105 MFI

Target: T1, human IL-33 (R&D Systems, #3625-IL-010/CF) (human)
Assay: SPR Biacore T200, 25 C

Binder	Kd	koff	kon	t1/2
B1	0.558 nM	0.000937 s⁻¹	1.68e+06 M⁻¹ s⁻¹	12 min
B10	0.391 nM	0.000637 s⁻¹	1.63e+06 M⁻¹ s⁻¹	18 min
B2	1.31 nM	0.000445 s⁻¹	339000 M⁻¹ s⁻¹	26 min
B3	1.74 nM	0.00115 s⁻¹	665000 M⁻¹ s⁻¹	10 min
B4	0.736 nM	0.000963 s⁻¹	1.31e+06 M⁻¹ s⁻¹	12 min
B5	0.839 nM	0.000806 s⁻¹	960000 M⁻¹ s⁻¹	14 min
B6	0.761 nM	0.000517 s⁻¹	680000 M⁻¹ s⁻¹	22 min
B7	0.527 nM	0.000459 s⁻¹	871000 M⁻¹ s⁻¹	25 min
B8	0.56 nM	0.001 s⁻¹	1.79e+06 M⁻¹ s⁻¹	12 min
B9	1.25 nM	0.00116 s⁻¹	931000 M⁻¹ s⁻¹	10 min

Target: T1, human IL-33 (R&D Systems, #3625-IL-010/CF) (human)
Assay: SPR Biacore T200, 37 C

Binder	Kd	koff	kon	t1/2
B1	0.517 nM	0.00161 s⁻¹	3.11e+06 M⁻¹ s⁻¹	7 min
B10	0.192 nM	0.000779 s⁻¹	4.06e+06 M⁻¹ s⁻¹	15 min
B2	0.674 nM	0.000531 s⁻¹	789000 M⁻¹ s⁻¹	22 min
B3	0.934 nM	0.00158 s⁻¹	1.69e+06 M⁻¹ s⁻¹	7 min
B4	0.552 nM	0.00203 s⁻¹	3.68e+06 M⁻¹ s⁻¹	6 min
B5	0.531 nM	0.00127 s⁻¹	2.39e+06 M⁻¹ s⁻¹	9 min
B6	0.519 nM	0.000663 s⁻¹	1.28e+06 M⁻¹ s⁻¹	17 min
B7	0.242 nM	0.000566 s⁻¹	2.34e+06 M⁻¹ s⁻¹	20 min
B8	0.457 nM	0.00158 s⁻¹	3.47e+06 M⁻¹ s⁻¹	7 min
B9	1 nM	0.00235 s⁻¹	2.35e+06 M⁻¹ s⁻¹	5 min

Target: T1, human IL-33 (R&D Systems, #3625-IL-010/CF) (human)
Assay: cell-based or functional assay

Binder	HEK-BLUE SEAP reporter IC50	IFN-γ secretion from primary NK cells, IC50	phospho-p38 in primary basophils, IC50
B10	0.011 nM	0.097 nM	0.00038 nM
B2	–	–	0.00014 nM

Target: T2, biotinylated human IL-33 (human)
Assay: competitive ELISA, biotin-huIL-33 to coated hST2-Fc

Binder	IC50	Maximum Blocking
B1	0.44 nM	82%
B10	0.063 nM	84%
B2	0.19 nM	87%
B3	0.21 nM	81%
B4	0.096 nM	77%
B5	0.22 nM	77%
B6	0.42 nM	80%
B7	0.25 nM	85%
B8	0.97 nM	73%
B9	0.7 nM	63%
